According to the supplement of paper PMC9112550, “Optimization of the antimicrobial peptide Bac7 by deep mutational scanning” (BMC Biology, 2022):

System: Escherichia coli TOP10
Assay: shrunken log2 fold change of peptide-encoding DNA abundance (4.5 h post-induction vs induction); higher = less antimicrobial activity (less host growth inhibition)
Conditions: time post-induction: 4.5 h; library: site-saturation at positions 5, 18, 19, 20
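Further: peptides expressed intracellularly from a pBAD plasmid library in pooled LB shake-flask culture, induced with 0.3% L-arabinose, DNA abundance read by NGS, three biological replicates, DESeq2 with apeglm shrinkage.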

| Sequence | shrunken log2 fold change |
| --- | --- |
| RRIRWRPPRLPRPRPRPHYKPRP | -0.631 |
| RRIRWRPPRLPRPRPRPHYMPRP | -0.825 |
| RRIRWRPPRLPRPRPRPIAKPRP | -0.283 |
| RRIRWRPPRLPRPRPRPIAPPRP | 0.45 |
| RRIRWRPPRLPRPRPRPIATPRP | 0.435 |
| RRIRWRPPRLPRPRPRPIFEPRP | 0.308 |
| RRIRWRPPRLPRPRPRPIFMPRP | -0.0259 |
| RRIRWRPPRLPRPRPRPIIAPRP | 0.00853 |
| RRIRWRPPRLPRPRPRPILRPRP | -0.0505 |
| RRIRWRPPRLPRPRPRPIMDPRP | -0.195 |
| RRIRWRPPRLPRPRPRPIMPPRP | -0.0977 |
| RRIRWRPPRLPRPRPRPIMRPRP | 0.0401 |
| RRIRWRPPRLPRPRPRPIPAPRP | 0.523 |
| RRIRWRPPRLPRPRPRPIQMPRP | -0.0543 |
| RRIRWRPPRLPRPRPRPIQSPRP | 0.245 |
| RRIRWRPPRLPRPRPRPIQWPRP | 0.25 |
| RRIRWRPPRLPRPRPRPISLPRP | -0.161 |
| RRIRWRPPRLPRPRPRPISTPRP | -0.399 |
| RRIRWRPPRLPRPRPRPITFPRP | -0.232 |
| RRIRWRPPRLPRPRPRPITRPRP | -0.0637 |
| RRIRWRPPRLPRPRPRPIVMPRP | -0.154 |
| RRIRWRPPRLPRPRPRPIVVPRP | -0.0496 |
| RRIRWRPPRLPRPRPRPIWGPRP | -0.01 |
| RRIRWRPPRLPRPRPRPIWHPRP | 0.126 |
| RRIRWRPPRLPRPRPRPIWRPRP | 0.628 |

| Sequence | shrunken log2 fold change |
| --- | --- |
| RRIRWRPPRLPRPRPRPIYGPRP | -0.0358 |
| RRIRWRPPRLPRPRPRPIYYPRP | -0.488 |
| RRIRWRPPRLPRPRPRPKEPPRP | 0.117 |
| RRIRWRPPRLPRPRPRPKFPPRP | 0.944 |
| RRIRWRPPRLPRPRPRPKGQPRP | -0.0148 |
| RRIRWRPPRLPRPRPRPKISPRP | 0.177 |
| RRIRWRPPRLPRPRPRPKKFPRP | 0.0141 |
| RRIRWRPPRLPRPRPRPKLMPRP | 0.31 |
| RRIRWRPPRLPRPRPRPKMVPRP | 0.295 |
| RRIRWRPPRLPRPRPRPKPGPRP | 0.34 |
| RRIRWRPPRLPRPRPRPKPKPRP | -0.0893 |
| RRIRWRPPRLPRPRPRPKQCPRP | 0.31 |
| RRIRWRPPRLPRPRPRPKQMPRP | 0.113 |
| RRIRWRPPRLPRPRPRPKRIPRP | 0.364 |
| RRIRWRPPRLPRPRPRPKRKPRP | 0.502 |
| RRIRWRPPRLPRPRPRPKRLPRP | 2.54 |
| RRIRWRPPRLPRPRPRPKRSPRP | 0.08 |
| RRIRWRPPRLPRPRPRPKSVPRP | -0.0882 |
| RRIRWRPPRLPRPRPRPKTGPRP | 0.491 |
| RRIRWRPPRLPRPRPRPKTHPRP | 0.293 |
| RRIRWRPPRLPRPRPRPKTVPRP | 0.227 |
| RRIRWRPPRLPRPRPRPKVEPRP | -0.0433 |
| RRIRWRPPRLPRPRPRPKVMPRP | -0.207 |
| RRIRWRPPRLPRPRPRPKVPPRP | -0.0143 |
| RRIRWRPPRLPRPRPRPKWHPRP | 0.184 |

| Sequence | shrunken log2 fold change |
| --- | --- |
| RRIRWRPPRLPRPRPRPKWIPRP | -0.0267 |
| RRIRWRPPRLPRPRPRPKYEPRP | -0.0182 |
| RRIRWRPPRLPRPRPRPKYNPRP | -0.558 |
| RRIRWRPPRLPRPRPRPLCGPRP | 1.71 |
| RRIRWRPPRLPRPRPRPLDPPRP | 0.0629 |
| RRIRWRPPRLPRPRPRPLEYPRP | -0.152 |
| RRIRWRPPRLPRPRPRPLFGPRP | 0.352 |
| RRIRWRPPRLPRPRPRPLFSPRP | 0.0976 |
| RRIRWRPPRLPRPRPRPLGCPRP | 0.438 |
| RRIRWRPPRLPRPRPRPLGVPRP | 0.459 |
| RRIRWRPPRLPRPRPRPLHIPRP | -0.465 |
| RRIRWRPPRLPRPRPRPLHMPRP | -0.0711 |
| RRIRWRPPRLPRPRPRPLHSPRP | 0.215 |
| RRIRWRPPRLPRPRPRPLHWPRP | 0.296 |
| RRIRWRPPRLPRPRPRPLKTPRP | 0.453 |
| RRIRWRPPRLPRPRPRPLLCPRP | 0.15 |
| RRIRWRPPRLPRPRPRPLLSPRP | 0.148 |
| RRIRWRPPRLPRPRPRPLLTPRP | 0.324 |
| RRIRWRPPRLPRPRPRPLMDPRP | 0.185 |
| RRIRWRPPRLPRPRPRPLMVPRP | -0.0319 |
| RRIRWRPPRLPRPRPRPLNVPRP | -0.0654 |
| RRIRWRPPRLPRPRPRPLPIPRP | -0.0952 |
| RRIRWRPPRLPRPRPRPLRAPRP | 1.19 |
| RRIRWRPPRLPRPRPRPLTDPRP | -0.0316 |
| RRIRWRPPRLPRPRPRPLTEPRP | 0.251 |

| Sequence | shrunken log2 fold change |
| --- | --- |
| RRIRWRPPRLPRPRPRPLTFPRP | -0.501 |
| RRIRWRPPRLPRPRPRPLTMPRP | 0.0382 |
| RRIRWRPPRLPRPRPRPLTQPRP | 0.307 |
| RRIRWRPPRLPRPRPRPLVSPRP | 1.59 |
| RRIRWRPPRLPRPRPRPLWGPRP | 0.08 |
| RRIRWRPPRLPRPRPRPLWPPRP | 0.275 |
| RRIRWRPPRLPRPRPRPLYNPRP | -0.78 |
| RRIRWRPPRLPRPRPRPMAPPRP | 0.0741 |
| RRIRWRPPRLPRPRPRPMFFPRP | 0.111 |
| RRIRWRPPRLPRPRPRPMGAPRP | 0.501 |
| RRIRWRPPRLPRPRPRPMHHPRP | -0.261 |
| RRIRWRPPRLPRPRPRPMHIPRP | 0.0409 |
| RRIRWRPPRLPRPRPRPMIVPRP | 2.28 |
| RRIRWRPPRLPRPRPRPMKYPRP | -0.311 |
| RRIRWRPPRLPRPRPRPMLNPRP | -0.00515 |
| RRIRWRPPRLPRPRPRPMMLPRP | 0.309 |
| RRIRWRPPRLPRPRPRPMMWPRP | 0.0342 |
| RRIRWRPPRLPRPRPRPMNEPRP | 0.0689 |
| RRIRWRPPRLPRPRPRPMPMPRP | 0.112 |
| RRIRWRPPRLPRPRPRPMPNPRP | -0.0767 |
| RRIRWRPPRLPRPRPRPMPRPRP | 0.623 |
| RRIRWRPPRLPRPRPRPMQIPRP | 0.0922 |
| RRIRWRPPRLPRPRPRPMQKPRP | -0.0122 |
| RRIRWRPPRLPRPRPRPMRCPRP | 0.353 |
| RRIRWRPPRLPRPRPRPMREPRP | 1.09 |

| Sequence | shrunken log2 fold change |
| --- | --- |
| RRIRWRPPRLPRPRPRPMTIPRP | 0.025 |
| RRIRWRPPRLPRPRPRPMTKPRP | 0.181 |
| RRIRWRPPRLPRPRPRPNADPRP | 0.466 |
| RRIRWRPPRLPRPRPRPNCHPRP | 0.0398 |
| RRIRWRPPRLPRPRPRPNCQPRP | -0.14 |
| RRIRWRPPRLPRPRPRPNDQPRP | 0.0201 |
| RRIRWRPPRLPRPRPRPNDSPRP | -0.134 |
| RRIRWRPPRLPRPRPRPNFHPRP | -0.0344 |
| RRIRWRPPRLPRPRPRPNFQPRP | 0.0517 |
| RRIRWRPPRLPRPRPRPNGMPRP | -0.0595 |
| RRIRWRPPRLPRPRPRPNGWPRP | 0.185 |
| RRIRWRPPRLPRPRPRPNHPPRP | -0.0659 |
| RRIRWRPPRLPRPRPRPNHWPRP | -0.0748 |
| RRIRWRPPRLPRPRPRPNICPRP | 0.0504 |
| RRIRWRPPRLPRPRPRPNIEPRP | -0.0429 |
| RRIRWRPPRLPRPRPRPNKIPRP | -0.432 |
| RRIRWRPPRLPRPRPRPNKLPRP | -0.277 |
| RRIRWRPPRLPRPRPRPNLMPRP | -0.227 |
| RRIRWRPPRLPRPRPRPNLPPRP | -0.101 |
| RRIRWRPPRLPRPRPRPNMPPRP | -0.268 |
| RRIRWRPPRLPRPRPRPNMQPRP | -0.0262 |
| RRIRWRPPRLPRPRPRPNMRPRP | 0.0208 |
| RRIRWRPPRLPRPRPRPNNWPRP | -0.0483 |
| RRIRWRPPRLPRPRPRPNQQPRP | -0.0465 |
| RRIRWRPPRLPRPRPRPNQRPRP | 0.181 |

| Sequence | shrunken log2 fold change |
| --- | --- |
| RRIRWRPPRLPRPRPRPNRTPRP | 0.121 |
| RRIRWRPPRLPRPRPRPNVNPRP | -0.171 |
| RRIRWRPPRLPRPRPRPNVQPRP | -0.0399 |
| RRIRWRPPRLPRPRPRPNYWPRP | 1.21 |
| RRIRWRPPRLPRPRPRPPAWPRP | 0.794 |
| RRIRWRPPRLPRPRPRPPCFPRP | 0.108 |
| RRIRWRPPRLPRPRPRPPCKPRP | -0.0735 |
| RRIRWRPPRLPRPRPRPPCMPRP | 0.00553 |
| RRIRWRPPRLPRPRPRPPEMPRP | 0.812 |
| RRIRWRPPRLPRPRPRPPERPRP | 0.816 |
| RRIRWRPPRLPRPRPRPPGGPRP | 0.669 |
| RRIRWRPPRLPRPRPRPPGNPRP | 0.687 |
| RRIRWRPPRLPRPRPRPPHQPRP | 0.235 |
| RRIRWRPPRLPRPRPRPPHYPRP | 0.24 |
| RRIRWRPPRLPRPRPRPPILPRP | 0.27 |
| RRIRWRPPRLPRPRPRPPKFPRP | 0.419 |
| RRIRWRPPRLPRPRPRPPLDPRP | 0.57 |
| RRIRWRPPRLPRPRPRPPLIPRP | -0.0843 |
| RRIRWRPPRLPRPRPRPPNKPRP | 0.206 |
| RRIRWRPPRLPRPRPRPPNSPRP | 0.39 |
| RRIRWRPPRLPRPRPRPPPQPRP | 0.905 |
| RRIRWRPPRLPRPRPRPPQCPRP | 0.292 |
| RRIRWRPPRLPRPRPRPPSPPRP | 0.598 |
| RRIRWRPPRLPRPRPRPPSWPRP | 1.32 |
| RRIRWRPPRLPRPRPRPPTDPRP | 0.415 |
